Measurements published in patent US20010052137A1, “Axin domain-like polypeptide inhibitors of glycogen synthase kinase 3 beta activity and activators of wnt signaling” (Trustees of the University of Pennsylvania, priority 2000, published 2001).
Entries after “also recorded” stand apart in the source; their conditions may differ.

B1: deltaRGS: Xaxin having amino acid residues 80-290 (RGS domain) deleted (protein)
chain: MSVKGKGFPLDLGGSFTEDAPRPPVPGEEGELITTDQRPFSHTYYSLKNDGIKNETSTATPRRPDLDLGYEPEGSASPTPREFRPGTWREPVNPYYVNTGYAGAPVTSANDSEQQSMSSDADTMSLTDSSVDGIPPYRLRKHYRREMQESANANGRGPLPHIPRTYHMPKDIHVDPEKFAAELISRLEGVLRDREAEQKLEERLKRVRAEEEGDDGDVSSGPSVISHKLPSGPPMHHFNSRYSETGCVGMQIRDAHEENPESILDEHVQRVMKTPGCQSPGTGRHSPKSRSPDGHLSKTLPGSLGTMQTGHGKHSSKSTAKVDSGNLHHHKHVYHHVHHHGGVKPKEQIDGESTQRVQTNFPWNVESHNYATKSRNYAESMGMAPNPMDSLAYSGKVSMLSKRNAKKADLGKSESASHEMPVVPEDSERHQKILQWIMEGEKEIIRHKKSNHSSSSAKKQPPTELARPLSIERPGAVHPWVSAQLRNVVQPSHPFIQDPTMPPNPAPNPLTQLVSKPGARLEEEEKKAAKMPQKQRLKPQKKNVSAPSQPCDNIVVAYYFCGEPIPYRTMVKGRVVTLGQFKELLTKKGNYRYYFKKVSDEFDCGVVFEEVREDDMILPIYEEKIIGQVEKID
modifications: left off: small tags and cut ends
notes: Xaxin having amino acid residues 80-290 (RGS domain) deleted
B2: GID-1: Myc-tagged fragment, amino acid residues 277-545 of Xenopus axin (Xaxin) (protein)
chain: SHCAGSNRRLSDGREFRPGTWREPVNPYYVNTGYAGAPVTSANDSEQQSMSSDADTMSLTDSSVDGIPPYRLRKHYRREMQESANANGRGPLPHIPRTYHMPKDIHVDPEKFAAELISRLEGVLRDREAEQKLEERLKRVRAEEEGDDGDVSSGPSVISHKLPSGPPMHHFNSRYSETGCVGMQIRDAHEENPESILDEHVQRVMKTPGCQSPGTGRHSPKSRSPDGHLSKTLPGSLGTMQTGHGKHSSKSTAKVDSGNLHHHKHVYHH
modifications: left off: small tags and cut ends
B3: deltaGID: Xaxin having amino acid residues 324-504 deleted (protein)
chain: MSVKGKGFPLDLGGSFTEDAPRPPVPGEEGELITTDQRPFSHTYYSLKNDGIKNETSTATPRRPDLDLGYEPEGSASPTPPYLKWAESLHSLLDDQDGIHLFRTFLQQENCADLLDFWFACSGFRKLEPNDSKVEKRLKLAKAIYKKYVLDSNGIVSRQIKPATKSFIKDCVLRQQIDPAMFDQAQMEIQSMMEDNTYPVFLKSDIYLEYTTIGGESPKNYSDQSSGSGTGKGPSGYLPTLNEDEEWRCDQGGEHERERECIPSSLFSQKLALDSSSHCAGSNRRLSDGREFRPGTWREPVNPYYVNTGYAGAPVTSANDSEQQHLSKTLPGSLGTMQTGHGKHSSKSTAKVDSGNLHHHKHVYHHVHHHGGVKPKEQIDGESTQRVQTNFPWNVESHNYATKSRNYAESMGMAPNPMDSLAYSGKVSMLSKRNAKKADLGKSESASHEMPVVPEDSERHQKILQWIMEGEKEIIRHKKSNHSSSSAKKQPPTELARPLSIERPGAVHPWVSAQLRNVVQPSHPFIQDPTMPPNPAPNPLTQLVSKPGARLEEEEKKAAKMPQKQRLKPQKKNVSAPSQPCDNIVVAYYFCGEPIPYRTMVKGRVVTLGQFKELLTKKGNYRYYFKKVSDEFDCGVVFEEVREDDMILPIYEEKIIGQVEKID
modifications: left off: small tags and cut ends
notes: Xaxin having amino acid residues 324-504 deleted
B4: GID-4: Myc-tagged fragment, Xaxin amino acid residues 350-429 (protein)
chain: KHYRREMQESANANGRGPLPHIPRTYHMPKDIHVDPEKFAAELISRLEGVLRDREAEQKLEERLKRVRAEEEGDDGDVSS
modifications: left off: small tags and cut ends
B5: deltaDIX: Xaxin having amino acid residues 778-842 deleted (protein)
chain: MSVKGKGFPLDLGGSFTEDAPRPPVPGEEGELITTDQRPFSHTYYSLKNDGIKNETSTATPRRPDLDLGYEPEGSASPTPPYLKWAESLHSLLDDQDGIHLFRTFLQQENCADLLDFWFACSGFRKLEPNDSKVEKRLKLAKAIYKKYVLDSNGIVSRQIKPATKSFIKDCVLRQQIDPAMFDQAQMEIQSMMEDNTYPVFLKSDIYLEYTTIGGESPKNYSDQSSGSGTGKGPSGYLPTLNEDEEWRCDQGGEHERERECIPSSLFSQKLALDSSSHCAGSNRRLSDGREFRPGTWREPVNPYYVNTGYAGAPVTSANDSEQQSMSSDADTMSLTDSSVDGIPPYRLRKHYRREMQESANANGRGPLPHIPRTYHMPKDIHVDPEKFAAELISRLEGVLRDREAEQKLEERLKRVRAEEEGDDGDVSSGPSVISHKLPSGPPMHHFNSRYSETGCVGMQIRDAHEENPESILDEHVQRVMKTPGCQSPGTGRHSPKSRSPDGHLSKTLPGSLGTMQTGHGKHSSKSTAKVDSGNLHHHKHVYHHVHHHGGVKPKEQIDGESTQRVQTNFPWNVESHNYATKSRNYAESMGMAPNPMDSLAYSGKVSMLSKRNAKKADLGKSESASHEMPVVPEDSERHQKILQWIMEGEKEIIRHKKSNHSSSSAKKQPPTELARPLSIERPGAVHPWVSAQLRNVVQPSHPFIQDPTMPPNPAPNPLTQLVSKPGARLEEEEKKAAKMPQKQRLKPQKKNVSAPSQPCDNIVVAYYFCGEPIPYRT
modifications: left off: small tags and cut ends
notes: Xaxin having amino acid residues 778-842 deleted
B6: GID-2: Myc-tagged fragment, Xaxin amino acid residues 320-429 (protein)
chain: DSEQQSMSSDADTMSLTDSSVDGIPPYRLRKHYRREMQESANANGRGPLPHIPRTYHMPKDIHVDPEKFAAELISRLEGVLRDREAEQKLEERLKRVRAEEEGDDGDVSS
modifications: left off: small tags and cut ends

tested on: Xenopus embryos; assay: Dorsal axis duplication / dorsalization in Xenopus embryos after mRNA injection; format: in vivo; conditions: construct expressed in embryos, injection side not stated

| Molecule | effect on axial development / axis formation |
| --- | --- |
| B1 | complete axis duplication |
| B2 | complete axis duplication |
| B3 | infrequent ectopic posterior axis formation |

same assay, conditions: construct(s) expressed in Xenopus embryos

| Molecule | embryos that exhibited dorsalization [%] |
| --- | --- |
| B1 | 86 |

tested on: GSK-3 beta; assay: In ovo tau phosphorylation assay: GSK-3 beta and Xaxin constructs co-expressed in Xenopus oocytes; format: cell-based; conditions: construct co-expressed with GSK-3 beta in Xenopus oocytes; tau microinjected; PHF-1 immunoblot
Protocol: Stage VI Xenopus oocytes were isolated by collagenase treatment (Smith et al., 1994, Meth. Cell Biol. 36:45-58) and were injected with mRNA prepared by in vitro transcription (mMessage Machine™; Ambion, Austin, Tex.). 10 nanoliters of mRNA (containing 1-2 nanograms per nanoliter) was injected for each construct (unless otherwise specified), and the injected oocytes were incubated for 16 hours at 18° C. To analyze the effects of Xaxin constructs on dorsal-ventral pattern formation, Xenopus embryos were injected with 10 nanoliters of mRNA (0.1-0.2 nanogram per nanoliter) into one dorsal or ventral cell of a 4 cell embryo and dorsal axes were assessed at the tadpole stage. For Xaxin co-immunoprecipitation, fertilized eggs were injected with 10 nanoliters of Xaxin tagged with Myc, with hemagglutinin, or with both Myc and hemagglutinin (1 nanogram per nanoliter) and harvested at the blastula stage (stage 8).
In ovo phosphorylation of tau by GSK-3 beta was performed by microinjection of tau protein into oocytes expressing GSK-3 beta and Xaxin constructs. After 90 minutes, oocytes were homogenized and tau phosphorylation was analyzed in western blots using phospho-specific antibodies as described (Hedgepeth et al., 1997, Develop. Biol. 185:82-91). In vitro assays for GSK-3 beta activity were performed as described (Klein et al., 1996, Proc. Natl. Acad. Sci. USA 93:8455-8459). Recombinant GID-2/his protein (described below) was purified by affinity chromatography and added to in vitro assays at selected concentrations.
In the experiments presented in this example, a tau phosphorylation assay (described in Hedgepeth et al., 1997, Develop. Biol. 185:82-91) was used to examine the activity of GSK-3 beta in Xenopus oocytes in the presence of full length axin and axin deletion mutants. […] Furthermore, GSK-3 beta-dependent tau phosphorylation occurs in oocytes at the same sites (tau serine residues 396 and 404) that are phosphorylated by GSK-3 beta in vitro and occurs with similarly rapid kinetics.
GSK-3 beta was expressed in oocytes together with Myc-tagged full length Xaxin or with the amino-terminal (amino acid residues 63-288), GID-1 (amino acid residues 277-545), or carboxyl-terminal (amino acid residues 429-713) fragments of Xaxin, as depicted in FIG. 1A. Purified tau protein was then microinjected into the oocytes, and phosphorylation of tau was measured by immunoblotting using antibody PHF-1 or with antibodies that detect all (i.e. phosphorylated and non-phosphorylated) forms of tau.
In order to identify the domain of axin necessary for GSK-3 beta binding, multiple Myc-tagged GID deletion constructs (shown diagrammatically in FIG. 3A) were individually expressed in Xenopus oocytes in which GSK-3 beta was also expressed. Tau protein was microinjected into the oocytes, and immunoblotting was performed using phosphorylation-state-specific tau antibodies. A parallel group of oocytes expressing GSK-3 beta and the Myc-tagged GID deletion constructs were lysed, and GID proteins were immunoprecipitated using a Myc-specific antibody. The presence or absence of GSK-3 beta in GID immunoprecipitates was detected using GSK-3 beta-specific antibodies. GID deletion constructs which included amino acid residues 380-404 of Xaxin (i.e. constructs GID-1, GID-2, GID-4, GID-5, and GID-6) bound GSK-3 beta and inhibited GSK-3 beta mediated tau phosphorylation, as indicated in FIG. 3A. […] However, changing leucine residue 392 in FIG. 3B to proline abolishes its activity.

| Molecule | GSK-3 beta-mediated tau phosphorylation (GSK-3 beta activity) |
| --- | --- |
| B1 | inhibited |
| B2 | virtually complete inhibition; also recorded: inhibited |
| B4 | inhibited |
| B5 | partially inhibited |
| B3 | no discernible effect |
| B6 | inhibited |

tested on: GSK-3 beta; assay: Co-immunoprecipitation of GSK-3 beta with Myc-tagged Xaxin constructs in Xenopus oocytes; format: binding; conditions: Myc-tagged construct co-expressed with GSK-3 beta in Xenopus oocytes; anti-Myc IP, anti-GSK-3 beta blot

| Molecule | binding with GSK-3 beta (co-immunoprecipitation) |
| --- | --- |
| B1 | bound |
| B2 | bound |
| B4 | bound |
| B5 | bound |
| B3 | did not bind |
| B6 | bound |
